Measurements: article PMC7311396, “Ultra-large chemical libraries for the discovery of high-affinity peptide binders” (Nature Communications, 2020)

Target: FITC-labeled NB.1
Experiment: fluorescence polarisation; direct fluorescence anisotropy: 1:1 dilution series of 14-3-3γ (starting at 100 μM) into FITC-labeled peptide (10 nM or 50 nM); 10 mM HEPES pH 7.4, 150 mM NaCl, 0.1% Tween 20, 0.1% BSA; ambient temperature

fold weaker binding than the 14-3-3γ-binding peptides: 10000 fold
B1: 14-3-3γ (natural protein)
chain: MVDREQLVQKARLAEQAERYDDMAAAMKNVTELNEPLSNEERNLLSVAYKNVVGARRSSWRVISSIEQKTSADGNEKKIEMVRAYREKIEKELEAVCQDVLSLLDNYLIKNCSETQYESKVFYLKMKGDYYRYLAEVATGEKRATVVESSEKAYSEAHEISKEHMQPTHPIRLGLALNYSVFYYEIQNAPEQACHLAKTAFDDAIAELDTLNEDSYKDSTLIMQLLRDNLTLWTSDQQDDDGGEGNN
